Measured values from patent publication US7482008B1, “Human T cell reactive feline protein (TRFP) isolated from house dust and uses therefor” (Merck Patent GmbH, priority 1989, dated 2009).

B1: peptide YZX: recombinant peptide: peptide Y linked to peptide Z linked to peptide X (SEQ ID NO: 103) (protein)
chain: MGHHHHHHEFLVPRGSKALPVVLENARILKNCVDAKMTEEDKEFFAVANGNELLLDLSLTKVNATEPERKRDVDLFLTGTPDEYVEQVAQYKALPV
B2: peptide XYZ: recombinant peptide: peptide X, peptide Y and peptide Z linked in this order (protein)
chain: MGHHHHHHLVPRGSKRDVDLFLTGTPDEYVEQVAQYKALPVVLENARILKNCVDAKMTEEDKEFFAVANGNELLLDLSLTKVNATEPER
B3: peptide YXZ: recombinant peptide: peptide Y, peptide X and peptide Z linked in this order (protein)
chain: MGHHHHHHEFKALPVVLENARILKNCVDAKMTEEDKEKRDVDLFLTGTPDEYVEQVAQYKALPVFFAVANGNELLLDLSLTKVNATEPER
B4: peptide XZY: recombinant peptide: peptide X, peptide Z and peptide Y linked in this order (protein)
chain: MGHHHHHHEFKRDVDLFLTGTPDEYVEQVAQYKALPVFFAVANGNELLLDLSLTKVNATEPERKALPVVLENARILKNCVDAKMTEEDKE
B5: peptide ZYX: recombinant peptide: peptide Z, peptide Y and peptide X linked in this order (protein)
chain: MGHHHHHHLVPRGSFFAVANGNELLLDLSLTKVNATEPERKALPVVLENARILKNCVDAKMTEEDKEKRDVDLFLTGTPDEYVEQVAQYKALPV
B6: recombinant chain 2: recombinant TRFP chain 2 expressed in E. coli (protein, UniProt P30440 18-109, looked up)
Major allergen I polypeptide …: VKMAETCPIFYDVFFAVANGNELLLDLSLTKVNATEPERTAMKKIQDCYVENGLISRVLDGLVMTTISSSKDCMGEAVQNTVEDLKLNTLGR
modifications: expressed in E. coli
notes: recombinant TRFP chain 2 expressed in E. coli

What was measured:
[1] = test system: human IgE (cat allergic patient plasma); test: Direct binding ELISA of human IgE to coated antigen; conditions: direct binding ELISA or similar protocol
Experimental: The basic format of these ELISA assays was a direct binding assay wherein the antigen was coated onto the wells of a 96 well microtitre dish and then antibodies in solution are added and assayed for the binding capacity. The protocol for these assays was as follows:
The peptides were conjugated to HSA (human serum albumin) by two different methods based on their chemical structure. […] Both conjugates were filter purified and dialyzed against PBS. In the ELISA assay, the unbound coating antigens were removed and the wells were blocked with 0.5% gelatin in PBS, 200 μl/well for 2 hours at room temperature. The antibody solution was a pool of plasma samples from 20 patients that were skin test positive for commercial cat extract which was serially diluted with PBS-Tween 20 (PBS with 0.05% nonionic detergent Tween-Sigma, St. Louis Mo.) and 100 μl/well was added and incubated overnight at 4° C. (plasma dilutions are tested in duplicate). […] The second antibody (biotinylated goat anti-Human IgE, 1:1000 Kirkegaard & Perry Laboratories Inc. Gaithersburg, Md.), was added at 100 μl/well for one hour at room temperature. This solution was removed and streptavidin-HRPO, 1:1000, (Southern Biotechnology Associates, Inc., Birmingham, Ala.) was then added at 100 μl/well for one hour at room temperature (all wells were washed three times with PBS-Tween between each incubation step). TMB Membrane Peroxidase Substrate system (Kirkegaard & Perry Laboratories) was freshly mixed, and added at 100 μl/well. The color was allowed to develop for 2-5 minutes. The reaction was stopped by the addition of […] of 1 M phosphoric acid. Plates are read on a Microplate EL 310 Autoreader (Biotek Instruments, Winooski, Vt.) with a 450 nm filter. The absorbance levels of duplicate wells were averaged.

B6CBAF1 mice = test: Murine T cell response after immunization with peptide YZX, IL-2 production (CTLL-2); type: in vivo, mouse; conditions: mice immunized with 100 μg peptide YZX in CFA; label = antigen in culture
Experimental: 10 B6CBAF1 mice were immunized subcutaneously at the base of the tail and in the thigh region with 100 μg of peptide YZX in complete Freund's adjuvant. After 10 days, the inguinal, paraaortic, and popliteal nodes of the immunized mice were removed and pooled. The lymph node cells were suspended in cold RPMI 1640 with 1% fetal bovine serum (FBS) by passage through stainless steel mesh. The cells were washed 2 times with cold RPMI-1640 containing 1% FBS and maintained at 4° C.
The lymph node cells were plated at 4×10^6 cells/ml in RPMI 1640 with 10% FBS, 250 μg/ml penicillin G, 100 μg/ml streptomycin, and 5×10^−5 M 2-mercaptoethanol. […] After 24 hours, 50 μl of supernatant was removed from each culture and frozen overnight to eliminate live cell carryover. The supernatant was warmed to […] and washed. CTLL-2 indicator cells (ATCC # T1B 214) were added (5×10^3 cells/well). This indicator cell line requires IL-2 for continued growth. After 24 hours, H^3-thymidine (1 μCi/well) was added and the cells were further incubated for 4 hours. The plates were frozen and thawed, harvested on a Tomtec 96 well harvester (Tomtec, Orange, Conn.), and counted on a Betaplate beta counter (Pharmacia, Gaithersburg, Md.).

[2] = test system: T cells from cat-allergic patients; test: Secondary proliferation assay of T cells primed with TRFP, peptide YXZ or peptide YZX; type: cell-based, human
Experimental: The human cat allergic T cell response to peptides produced as above was examined. […] Peptide YZX was cleaved with thrombin as described in Example 25. Viable cells were then purified by Ficoll-Hypaque centrifugation and cultured for 2 additional weeks in RPMI-1640/5% AB serum containing 5 units recombinant human IL-2/ml and 5 units recombinant human IL-4/ml. The resting T cells were then tested in a secondary proliferation assay using a 96 well microtiter plate to assess T cell responses to various TRFP proteins or peptides (TRFP antigens). For assay, 2×10^4 resting T cells were cultured for 3 days at 37° C. in the presence of 2×10^4 autologous Epstein-Barr virus transformed B cells (25,000 Rads) as antigen presenting cells with various concentrations of antigen in 200 μl per well. Each well then received 1 μCi tritiated thymidine for 16 hours. The counts incorporated were collected onto glass fiber filters and processed for liquid scintillation counting. The stimulation indices for responses to each antigen were then calculated as the maximum CPM in response to antigen divided by the medium control CPM. A stimulation index of 2.5 was considered to be a positive T cell response. A summary of the results of 3 such experiments (patients 522, 519, and 386 is shown in FIG. 35a, FIG. 35b and FIG. 35c). As compared to the experiments shown in FIGS. 35a and 35b in the experiment shown in […], Fel-1.4 (chain 1, amino acid residues 6-17) was substituted for Fel-1.2 (chain 1, amino acid residues 1-17) and Fel-33.3 (chain 2, amino acid residues 26-40) was substituted for Fel-18 (chain 2, amino acid residues 23-48) in order to more closely resemble the constituent amino acids of peptides X and Z. In addition, in this experiment one peptide derived from the Y-Z junction of peptide YZX (amino acid residues 50-55 from chain 1 of TRFP and amino acid residues 14-19 from chain 2 of TRFP) and one peptide derived from the Z-X junction of peptide YZX (amino acid residues 34-39 of chain 2 of TRFP and amino acid residues 7-12 of chain 1 of TRFP) were synthesized and tested. These junction peptides were produced in order to determine whether these areas of peptide YZX produce a non-native epitope when formed in the peptide.

human IgE [3] = test: SDS/PAGE Western immunoblot of human IgE binding, plasma from patient #417; conditions: patient #417 plasma
Experimental: Western immunoblot analysis of the peptides produced in above was performed. The concentration of all protein samples (e.g., TRFP, recombinant chain 1 of TRFP, recombinant chain 2 of TRFP, peptide XYZ, peptide XZY, peptide YXZ, peptide YZX, peptide ZXY and peptide ZYX) for gel electrophoresis was determined by the BCA method (Pierce Co.). All protein samples were loaded on the gel at 5 μg/lane except TRFP at 10 μg/lane. Protein separation was carried out on a 15% acrylamide gel, and transfer was performed by electroblotting at 1.5 Amps for 1.5 hours onto nitrocellulose paper (Schleicher and Schuell, 0.1 microns) in a Hoeffer apparatus according to the protocol of Towbin, H., T. Stachlin, and J. Gordon, PNAS 76:4350 (1979). Proteins were rinsed in blot solution (25 mM Tris-HCl 7.5, 0.171 M NaCl and 0.5 ml/liter Tween 20). The blot was then blocked for one hour in blocking solution (1% milk in blot solution). Plasma from patient #417, used as a primary antibody source, was diluted in blocking solution to 10% and preabsorbed for 1.5 hours with unused nitrocellulose (2 cm×15 cm). The prepared human plasma was then incubated overnight on an orbital shaker with the protein blot section of interest. Following the first antibody incubation the blot section was washed three times, each wash involved a fifteen minute incubation in blot solution. The second antibody, specific for human IgE (biotinylated goat anti-human IgE, KPL Inc.), was diluted 1:2500 in blot solution and the incubation proceeded for two hours. Excess second antibody was subsequently removed by three 15 minute incubations with blot solution. ^125I Iodinated streptavidin (Amersham) was diluted 1:2500 in blot solution and incubated with blots for 1 hour, at 2 μCi in a 50 ml incubation volume. Blot sections were then washed with blot solution until the detectable radioactivity in the waste solution decreased to background levels. The blot section was then wrapped in saran wrap and exposed to film overnight with a cronex intensifying screen at −80° C.

human IgE [4] = test: ELISA of human IgE binding, plasma from patient #669; conditions: patient #669 plasma
Experimental: Corning assay plates (#25882-96) were coated with 10 μg/ml of each coating antigen (i.e., TRFP, chain 1 (recombinant chain 1 of TRFP), chain 2 (recombinant chain 2 of TRFP), peptide XYZ, peptide XZY, peptide YXZ, peptide YZX, peptide ZXY and peptide ZYX) listed in FIG. 34 at 50 μl/well and incubated overnight at 4° C. The coating antigens were removed and the wells were blocked with 0.5% gelatin in PBS, 200 μl/well for 2 hours at room temperature. Plasma from patient #669 was serially diluted with PBS-Tween 20 (PBS with 0.05% nonionic detergent Tween-20 Sigma, St. Louis Mo.) and 100 μl/well was added and incubated overnight at 4° C. (plasma dilutions are tested in duplicate). The second antibody (biotinylated goat anti-Human IgE, 1:1000, Kirkegaard & Perry Laboratories Inc. Gaithersburg, Md.), was added at 100 μl/well for one hour at room temperature. This solution was removed and streptavidin-HRPO, 1:10,000 (Southern Biotechnology Associates, Inc., Birmingham, Ala.) was then added at 100 μl/well for one hour at room temperature (all wells were washed three times with PBS-Tween between each incubation step). TMB Membrane Peroxidase Substrate system (Kirkegaard & Perry Laboratories) was freshly mixed, and added at 100 μl/well. The color was allowed to develop for 2-5 minutes. The reaction was stopped by the addition of 100 μl/well of 1M phosphoric acid. Plates were read on a Microplate EL 310 Autoreader (Biotek Instruments, Winooski, Vt.) with a 450 nm filter. The absorbance levels of duplicate wells were averaged.

[5] = patient 386, T cells primed with YZX
[6] = patient 519, cells primed with peptide YXZ

Row | Molecule | specific IgE binding [1] | T cell response of pooled lymph node cells (IL-2 production) (B6CBAF1 mice) | IgE binding, Western immunoblot (human IgE [3]) | also measured
1 | Fel 31-1: TRFP chain 2 amino acids 14-40 (VTQALGVKMAETCPIFYDVFFAVANGN) | None of these peptides showed IgE binding |  |  | 
2 | peptide Z: amino acid residues 14-39 from chain 2 of TRFP (SEQ. ID. NO: 19) (FFAVANGNELLLDLSLTKVNATEPER) | None of these peptides showed IgE binding | significant response |  | T cell response [2, 5]: respond at a similar level or better; T cell response [2, 6]: positive responses; T cell response ([2]; patient 522, T cells primed with YXZ): respond at a similar level or better
3 | Fel 8-1: TRFP chain 1 amino acids 5-33 (AVKRDVDLFLTGTPDEYVEQVAQYKALPV; UniProt P30438 27-55, looked up, fragment) | None of these peptides showed IgE binding |  |  | 
4 | B1 |  | respond well | negative for IgE binding | T cell response [2, 5]: respond at a similar level or better; T cell response ([2]; patient 386, T cells primed with native TRFP): positively respond
5 | B2 |  |  | show IgE binding | IgE binding, ELISA (human IgE [4]): slight signal
6 | B3 |  |  | negative for IgE binding | T cell response [2, 6]: positive responses; T cell response ([2]; patient 519, native TRFP-primed T cells): respond; T cell response ([2]; patient 522, T cells primed with native TRFP, SI 2.5 positive): positively respond
7 | B4 |  | strong T cell responses | negative for IgE binding | 
8 | B5 |  | strong T cell responses | negative for IgE binding | 
9 | B6 |  |  | reduced compared to chain 1 | IgE binding, ELISA (human IgE [4]): somewhat lower binding
